Earlier results on one substance are cited in paper PMC5242463.

The data set has as its target Trigger Factor (Escherichia coli) (UniProt P0A850).

Trigger Factor (Escherichia coli), sequence (P0A850 whole entry): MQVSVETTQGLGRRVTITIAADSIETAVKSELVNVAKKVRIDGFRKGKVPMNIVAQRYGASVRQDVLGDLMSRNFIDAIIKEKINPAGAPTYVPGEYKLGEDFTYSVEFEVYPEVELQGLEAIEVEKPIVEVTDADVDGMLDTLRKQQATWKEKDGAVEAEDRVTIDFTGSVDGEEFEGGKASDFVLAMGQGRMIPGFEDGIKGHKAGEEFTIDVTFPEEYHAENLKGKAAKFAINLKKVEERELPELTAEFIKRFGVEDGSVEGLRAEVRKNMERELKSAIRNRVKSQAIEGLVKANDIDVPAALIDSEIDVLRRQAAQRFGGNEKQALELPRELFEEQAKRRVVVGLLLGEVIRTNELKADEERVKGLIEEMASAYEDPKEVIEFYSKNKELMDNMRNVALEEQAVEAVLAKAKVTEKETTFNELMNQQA
Nascent Lep, sequence (P00803 whole entry): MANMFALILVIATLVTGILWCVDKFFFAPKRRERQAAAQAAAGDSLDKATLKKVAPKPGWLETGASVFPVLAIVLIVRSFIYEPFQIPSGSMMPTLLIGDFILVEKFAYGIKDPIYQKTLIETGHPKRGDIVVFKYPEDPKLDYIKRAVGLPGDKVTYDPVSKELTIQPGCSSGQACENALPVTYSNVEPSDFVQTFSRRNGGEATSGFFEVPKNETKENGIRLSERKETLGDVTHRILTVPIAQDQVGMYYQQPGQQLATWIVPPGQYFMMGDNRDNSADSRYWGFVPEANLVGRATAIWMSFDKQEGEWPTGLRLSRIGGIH

As a reminder, the Kd is the concentration at which binding is half-saturated. On to Nascent Lep (from UniProt P00803), for which the Kd was 311 nM.
